# Measurements as given in patent US20200024330A1.
# What was measured:
# Assay in all cases: cell-based or functional assay
# [1] = biological target: HIV-1 Env of isolate 93IN905 (HIV-1)
# [2] = biological target: HIV-1 Env of isolate 93MW959 (HIV-1)
# [3] = biological target: HIV-1 Env of isolate 97ZA012 (HIV-1)
# [4] = biological target: HIV-1 Env of isolate 98IN022 (HIV-1)
# [5] = biological target: HIV-1 Env of isolate JRCSF (HIV-1) (UniProt P20871)
# [6] = biological target: HIV-1 Env of isolate MGRM-Chronic-B-010 (HIV-1)
# [7] = biological target: HIV-1 Env of isolate MGRM-Chronic-B-011 (HIV-1)
# [8] = biological target: HIV-1 Env of isolate MGRM-Chronic-B-012 (HIV-1)
# [9] = biological target: HIV-1 Env of isolate MGRM-Chronic-B-017 (HIV-1)
# [10] = biological target: HIV-1 Env of isolate MGRM-Chronic-B-018 (HIV-1)
# [11] = biological target: HIV-1 Env of isolate MGRM-Chronic-B-020 (HIV-1)
# [12] = biological target: HIV-1 Env of isolate MGRM-Chronic-B-023 (HIV-1)
# [13] = biological target: HIV-1 Env of isolate MGRM-Chronic-B-024 (HIV-1)
# [14] = biological target: HIV-1 Env of isolate MGRM-D-011 (HIV-1)
# [15] = biological target: HIV-1 Env of isolate MGRM-D-012 (HIV-1)
# [16] = biological target: HIV-1 Env of isolate MGRM-D-013 (HIV-1)
# [17] = biological target: HIV-1 Env of isolate MGRM-D-014 (HIV-1)
# [18] = biological target: HIV-1 Env of isolate MGRM-D-016 (HIV-1)
# [19] = biological target: HIV-1 Env of isolate MGRM-D-018 (HIV-1)
# [20] = biological target: HIV-1 Env of isolate MGRM-D-019 (HIV-1)
# [21] = biological target: HIV-1 Env of isolate MGRM-D-020 (HIV-1)
# [22] = biological target: HIV-1 Env of isolate MGRM-D-021 (HIV-1)
# [23] = biological target: HIV-1 Env of isolate MGRM-D-022 (HIV-1)
# [24] = biological target: HIV-1 Env of isolate MGRM-D-024 (HIV-1)
# [25] = biological target: HIV-1 Env of isolate MGRM-D-026 (HIV-1)
# [26] = biological target: HIV-1 Env of isolate MGRM-D-028 (HIV-1)
# [27] = biological target: HIV-1 Env of isolate MGRM-D-029 (HIV-1)
# [28] = biological target: HIV-1 Env of isolate MGRM-F1-004 (HIV-1)
# [29] = biological target: HIV-1 Env of isolate MGRM-F1-006 (HIV-1)
# [30] = biological target: HIV-1 Env of isolate MGRM-F1-008 (HIV-1)
# [31] = biological target: HIV-1 Env of isolate MGRM-F1-010 (HIV-1)
# [32] = biological target: HIV-1 Env of isolate MGRM-F1-012 (HIV-1)
# [33] = biological target: HIV-1 Env of isolate MGRM-F1-013 (HIV-1)
# [34] = biological target: HIV-1 Env of isolate MGRM-F1-014 (HIV-1)
# [35] = biological target: HIV-1 Env of isolate MGRM-F1-015 (HIV-1)
# [36] = biological target: HIV-1 Env of isolate MGRM-F1-016 (HIV-1)
# [37] = biological target: HIV-1 Env of isolate MGRM-F1-017 (HIV-1)
# [38] = biological target: HIV-1 Env of isolate MGRM-F1-018 (HIV-1)
# [39] = biological target: HIV-1 Env of isolate MGRM-F1-020 (HIV-1)
# [40] = biological target: HIV-1 Env of isolate MGRM-F1-021 (HIV-1)
# [41] = biological target: HIV-1 Env of isolate MGRM-F1-022 (HIV-1)
# [42] = biological target: HIV-1 Env of isolate MGRM-F1-023 (HIV-1)
# [43] = biological target: HIV-1 Env of isolate NL43 (HIV-1)
# [44] = biological target: HIV-1 Env of isolate PVO.4 (HIV-1)
# [45] = biological target: HIV-1 Env of isolate QH0692.42 (HIV-1)
# [46] = biological target: HIV-1 Env of isolate SC422661.8 (HIV-1)
# [47] = biological target: HIV-1 Env of isolate SF162 (HIV-1) (UniProt P19550)
# [48] = biological target: HIV-1 Env of isolate THR0.18 (HIV-1)
# [49] = biological target: HIV-1 Env of isolate TRJ04551.58 (HIV-1)
# [50] = biological target: HIV-1 Env of isolate TRO.11 (HIV-1)
# [51] = biological target: HIV-1 Env of isolate VLGCB3 (HIV-1)
# PGT-145 (antibody), sequence (VH): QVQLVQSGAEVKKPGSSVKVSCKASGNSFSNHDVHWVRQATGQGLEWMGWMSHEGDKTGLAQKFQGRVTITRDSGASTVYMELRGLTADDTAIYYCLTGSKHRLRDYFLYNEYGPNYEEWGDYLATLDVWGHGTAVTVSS
# PGT-145 (antibody), sequence (VL): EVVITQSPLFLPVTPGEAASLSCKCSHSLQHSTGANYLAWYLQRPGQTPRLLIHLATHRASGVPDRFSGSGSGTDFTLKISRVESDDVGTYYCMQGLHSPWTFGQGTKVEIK
substance,measurement,setting,value
PGT-145 (antibody),neutralization IC50,[1],0.002 µg/mL
same,neutralization IC50,[2],1.2 µg/mL
same,neutralization IC50,[3],0.915 µg/mL
same,neutralization IC50,[4],0.005 µg/mL
same,neutralization IC50,[5],0.002 µg/mL
same,neutralization IC50,[6],> 50 µg/mL
same,neutralization IC50,[7],0.206 µg/mL
same,neutralization IC50,[8],9.66 µg/mL
same,neutralization IC50,[9],0.054 µg/mL
same,neutralization IC50,[10],0.013 µg/mL
same,neutralization IC50,[11],> 50 µg/mL
same,neutralization IC50,[12],0.009 µg/mL
same,neutralization IC50,[13],0.018 µg/mL
same,"IC50, pseudovirus neutralization",[14],14.7 µg/mL
same,"IC50, pseudovirus neutralization",[15],> 50 µg/mL
same,"IC50, pseudovirus neutralization",[16],3.48 µg/mL
same,"IC50, pseudovirus neutralization",[17],2.51 µg/mL
same,"IC50, pseudovirus neutralization",[18],> 50 µg/mL
same,"IC50, pseudovirus neutralization",[19],0.065 µg/mL
same,"IC50, pseudovirus neutralization",[20],0.111 µg/mL
same,"IC50, pseudovirus neutralization",[21],10 µg/mL
same,"IC50, pseudovirus neutralization",[22],> 50 µg/mL
same,"IC50, pseudovirus neutralization",[23],34.3 µg/mL
same,"IC50, pseudovirus neutralization",[24],0.224 µg/mL
same,"IC50, pseudovirus neutralization",[25],0.41 µg/mL
same,"IC50, pseudovirus neutralization",[26],0.721 µg/mL
same,"IC50, pseudovirus neutralization",[27],0.03 µg/mL
same,"IC50, pseudovirus neutralization",[28],0.361 µg/mL
same,"IC50, pseudovirus neutralization",[29],13.6 µg/mL
same,"IC50, pseudovirus neutralization",[30],0.228 µg/mL
same,"IC50, pseudovirus neutralization",[31],3.32 µg/mL
same,"IC50, pseudovirus neutralization",[32],0.113 µg/mL
same,"IC50, pseudovirus neutralization",[33],0.402 µg/mL
same,"IC50, pseudovirus neutralization",[34],0.009 µg/mL
same,"IC50, pseudovirus neutralization",[35],1.76 µg/mL
same,"IC50, pseudovirus neutralization",[36],17.5 µg/mL
same,"IC50, pseudovirus neutralization",[37],0.286 µg/mL
same,"IC50, pseudovirus neutralization",[38],1.02 µg/mL
same,"IC50, pseudovirus neutralization",[39],0.816 µg/mL
same,"IC50, pseudovirus neutralization",[40],8.04 µg/mL
same,"IC50, pseudovirus neutralization",[41],0.009 µg/mL
same,"IC50, pseudovirus neutralization",[42],5.88 µg/mL
same,neutralization IC50,[43],0.006 µg/mL
same,neutralization IC50,[44],0.299 µg/mL
same,neutralization IC50,[45],> 50 µg/mL
same,neutralization IC50,[46],0.079 µg/mL
same,neutralization IC50,[47],> 50 µg/mL
same,neutralization IC50,[48],0.013 µg/mL
same,neutralization IC50,[49],> 50 µg/mL
same,neutralization IC50,[50],0.044 µg/mL
same,neutralization IC50,[51],> 50 µg/mL
